Here are results for one molecule from patent publication US20090170069A1 (ARIZONA BOARD OF REGENTS ON BEHALF OF THE UNIVERSITY OF …, published 2009).

For the assay, the target named is T1, Vascular Endothelial Growth Factor (VEGF), His-tagged, refolded dimer (UniProt P15692-4 37-135).
T1 sequence (looked up): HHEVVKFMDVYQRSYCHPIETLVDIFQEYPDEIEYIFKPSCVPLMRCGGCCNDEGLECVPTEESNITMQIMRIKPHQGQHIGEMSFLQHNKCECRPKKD

B1: Flt-1 domain 2 fused to the N-terminal half of firefly luciferase (residues 2-416) (receptor, UniProt P17948 129-229, looked up, not shown: small tags and cut ends)
chain: SDTGRPFVEMYSEIPEIIHMTEGRELVIPCRVTSPNITVTLKKFPLDTLIPDGKRIIWDSRKGFIISNATYKEIGLLTCEATVNGHLYKTNYLTHRQTNTIEDAKNIKKGPAPFYPLEDGTAGEQLHKAMKRYALVPGTIAFTDAHIEVNITYAEYFEMSVRLAEAMKRYGLNTNHRIVVCSENSLQFFMPVLGALFIGVAVAPANDIYNERELLNSMNISQPTVVFVSKKGLQKILNVQKKLPIIQKIIIMDSKTDYQGFQSMYTFVTSHLPPGFNEYDFVPESFDRDKTIALIMNSSGSTGLPKGVALPHRTACVRFSHARDPIFGNQIIPDTAILSVVPFHHGFGMFTTLGYLICGFRVVLMYRFEEELFLRSLQDYKIQSALLVPTLFSFFAKSTLIDKYDLSNLHEIASGGAPLSKEVGEAVAKRFHLPGIRQGYGLTETTSAILITPEGDDKPGAVGKVVPFFEAKVVDLDTGKTLGVNQRGELCVRGPMIMSGYVNNPEATNALIDKDG
With B1, the “fold increase in luminescence” value was 15 fold.
